What is called EC50 is the concentration giving half of the maximal effect. One may read the Kd as the free concentration of one partner at which half of the binding sites on the other are occupied at equilibrium, for simple one-to-one binding. For orientation: koff means the first-order rate constant of dissociation. One may read the kon as the rate constant with which the complex forms.

In test [1] the target is T1, human Trop2 on cells (human, UniProt P09758 27-323).
T1 sequence (looked up): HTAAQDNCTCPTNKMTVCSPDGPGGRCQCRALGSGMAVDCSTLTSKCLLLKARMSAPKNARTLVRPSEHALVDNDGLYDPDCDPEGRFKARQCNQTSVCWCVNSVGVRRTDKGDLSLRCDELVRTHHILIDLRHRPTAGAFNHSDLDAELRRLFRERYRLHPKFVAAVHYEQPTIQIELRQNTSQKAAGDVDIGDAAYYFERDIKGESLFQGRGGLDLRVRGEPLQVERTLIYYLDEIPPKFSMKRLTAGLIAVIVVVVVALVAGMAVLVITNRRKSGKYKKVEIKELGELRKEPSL
Briefly: cell-based or functional assay.

The target of test [2] is T1, human Trop2 on cells. Briefly: flow cytometry on BxPC-3 tumor cells. Here is the method: BxPC-3 tumor cells (the Cell Bank of the Chinese Academy of Sciences, #TCHu 12) were digested with 3 mL of TrypLE, and the digestion was stopped with 7 mL of the corresponding medium. […] The cell solution was centrifuged, and the cells were washed once with PBS+[…] buffer. […] The cells were washed once with PBS+0.50% BSA. The cells were incubated at 4° C. for 1 h in the dark with 100 μL of Alexa Fluor 488 goat anti-human IgG (Life technologies, #A-11013) diluted at 1:1000, and washed twice with PBS+0.50% BSA. The cells were resuspended in 200 μL of PBS+0.50% BSA. The suspension was centrifuged at 4° C. for 5 min at 2000 rpm and tested using a FACS verse flow cytometer or NovoCyte flow cytometer (ACEA Biosciences). All procedures were performed on ice.
In general terms: Flow cytometry measures light scatter and fluorescence of single cells or particles in a stream.

Test [3] deals with T2, human TROP2 protein (Sino Biological, #10428-H08H) (human, UniProt P09758 27-274).
T2 construct: bought protein; also called human Trop2 protein antigen (His tag); not shown: His tag
T2 sequence (looked up): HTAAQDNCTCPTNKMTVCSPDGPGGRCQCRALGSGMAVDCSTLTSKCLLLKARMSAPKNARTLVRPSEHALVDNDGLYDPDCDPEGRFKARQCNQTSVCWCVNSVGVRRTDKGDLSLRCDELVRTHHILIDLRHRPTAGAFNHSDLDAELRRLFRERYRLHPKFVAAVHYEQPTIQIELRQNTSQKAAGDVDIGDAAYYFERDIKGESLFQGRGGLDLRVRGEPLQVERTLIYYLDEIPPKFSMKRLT
As to the kind of experiment: SPR, Biacore T200, antigen immobilised on CM5 chip. The method, then:
(§1) HBS-EP+ (10 mM HEPES, 150 mM NaCl, 3 mM EDTA, and 0.05% P20, pH 7.4, GE Healthcare, BR-1001-88) was used as a running buffer throughout the test. […] Data were analyzed using Biacore T200 (GE Healthcare, T200 model, #BIAC-B20-03) Evaluation 3.1 software.
(In general: SPR reads the build-up and loss of mass on a sensor chip optically.)

Test [4] concerns the target T3, monkey Trop2 protein (Sino Biological, #90893-C08H) (monkey, UniProt A0A2K5UE71 27-274).
T3 construct: bought protein; also called monkey Trop2 protein antigen (His tag)
T3 sequence: T2 sequence (looked up) with M36V, K46E, S67N, I204V
As to the kind of experiment: SPR, Biacore T200, antigen immobilised on CM5 chip. Here is the method: as §1

The target of test [5] is T4, mouse Trop2-his protein (Sino Biological, #50922-M08H) (mouse, UniProt Q8BGV3 25-270).
T4 construct: bought protein; also called mouse Trop2 protein; not shown: his tag
T4 sequence (looked up): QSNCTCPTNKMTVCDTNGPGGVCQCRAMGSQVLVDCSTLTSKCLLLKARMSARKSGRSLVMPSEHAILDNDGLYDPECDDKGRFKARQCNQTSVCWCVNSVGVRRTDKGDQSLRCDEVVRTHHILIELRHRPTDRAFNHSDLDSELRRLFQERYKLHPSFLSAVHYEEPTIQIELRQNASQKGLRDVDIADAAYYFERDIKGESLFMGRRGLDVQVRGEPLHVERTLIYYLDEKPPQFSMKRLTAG
As to the kind of experiment: ELISA, plate coated with mouse Trop2-his protein, anti-human IgG (H+L)-HRP, OD450 nm. Here is the method: An ELISA plate was coated with 100 μL of 1 μg/mL mouse Trop2-his protein (Sino Biological, #50922-M08H) in PBS at 4° C. overnight. The plate was blocked with 200 μL of PBST (PBS+0.05% tween 20)+2% BSA at 37° C. for 1 h. The plate was washed 4 times with PBST. 100 μL of Trop2 antibody diluted in a gradient (5-fold dilution, starting concentration: 33.33 nM) was added to the ELISA plate and the plate was incubated at 37° C. for 1 h. The plate was washed 4 times with PBST. 100 μL of anti-human IgG (H+L)-HRP (Sigma, #A8667) diluted in 1:4000 was added and the plate was incubated at 37° C. for 1 h. The plate was washed 4 times with PBST. 100 μL of TMB substrate (Invitrogen, #88-7025-88) was added and the plate was incubated at room temperature for 5 min, and then 50 μL of stop buffer (BBI life sciences, #E661006-0200) was added to stop the reaction. The OD450 nm reading was recorded using a microplate reader (Perkin Elmer, EnSpire).
(In general: An ELISA detects its analyte on a solid surface through an enzyme-linked reagent.)

Where a chain is given by its changes, count along the chain named.

B1: PR001166 (antibody, human IgG1, kappa, V domains shown)
VH: QVQLQESGPGLVKPSETLSLTCAVSGYSISSGYFWAWIRQPPGKGLEWIGSIYHSGRTHYNPSLKSRVIISLDTSKNQFSLKLRSVTAADSAVYYCAREGYASGSYYWGQGTLVTVSS
VL: EIVMTQSPATLSVSPGERATLSCRSSQSVNNYLAWFQQKPGQAPRLLIYDSSTRATGIPARFSGSGSGTEFTLTISSLQSEDFAFYFCQQYENWPLTFGGGTKVEIKR
notes: fully human IgG1/kappa; also called antibody No. (27)
With B1, in the test with human Trop2 on cells [1], the “ADCC (donor 1152#) EC50(nM), BxPC-3 + PBMC, LDH release” value is 0.02 nM; the “ADCC (donor 1152#) Maximum cell killing %” value stood at 36.5%; the “ADCC (donor 1152#) Minimum cell killing %” value amounted to 3.25%; the “ADCC (donor 2153#) EC50(nM), BxPC-3 + PBMC, LDH release” value was 0.0347 nM. In addition, in the test with human Trop2 on cells [1], the “ADCC (donor 2153#) Maximum cell killing %” value is 69.1% and the “ADCC (donor 2153#) Minimum cell killing %” value was 11.9%. In the test with human Trop2 on cells [2], the EC50 was 716 pM, the “Maximum MFI value” worked out at 8390 MFI and the “fold lower EC50 than the reference antibody hRS7” value was around 2 fold. Besides, in test [3], the Kd is 27.9 pM, the off-rate (koff) worked out at 5.78e-05 s⁻¹ and the on-rate (kon) was 2.07e+06 M⁻¹ s⁻¹. Further, in test [4], the dissociation constant Kd stood at 85.6 pM, the off-rate constant (koff) was 0.000137 s⁻¹ and the kon amounted to 1.59e+06 M⁻¹ s⁻¹. The binding result in test [5] is on record as “binds”.

The record behind these values is patent US20240067748A1 (NONA BIOSCIENCES SUZHOU, published 2024).
